System: K4 kissing-loop RNA reporter
Assay: apparent KD of K4 kissing-loop reporter; higher = weaker reporter binding
Details: Eterna round: R107
Description: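 RNA-MaP round R107: designed RNA switches with theophylline, tryptophan, arginine or FMN aptamers are transcribed on-chip within common flanks. They are titrated with a labelled K4 kissing-loop RNA reporter in RNA-MaP buffer (100 mM Tris pH 7.5, 80 mM KCl, 4 mM MgCl2), without ligand or with the indicated ligand. Median apparent KD per design.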

[1] = input ligand: theophylline 20 uM
[2] = input ligand: tryptophan 2.4 mM
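Also: bound reporter read as fluorescence of individual clusters on recovered sequencing chips by microscopy, with normalized cluster intensities fitted with a binding model.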

| Sequence | apparent KD of K4 kissing-loop reporter (input ligand: FMN 200 uM) | apparent KD of K4 kissing-loop reporter (input ligand: arginine 13.2 mM) | apparent KD of K4 kissing-loop reporter (input ligand: none) | apparent KD of K4 kissing-loop reporter [1] | apparent KD of K4 kissing-loop reporter [2] |
| --- | --- | --- | --- | --- | --- |
| GGAUAGGACAGAGGAUAUGGUAGUGAUGUUACCAAACUGGUUAUUAAUGUCAGAAAACUGGCAAAUCCAGAAGGCUGUCCUAUCG [KL-XFMN-B13] | 180 nM | 63.8 nM | 75.7 nM | 60.5 nM | 62.9 nM |
| GCCGUAGAUGGAAGGAGCGACUUCAGCGGAUAAACGUGACAAUUGGAGUGAUGUUCGCAAGGUCAGGUAGGUCGCCAUCUACGGC | 819 nM | 211 nM | 260 nM | 274 nM | 313 nM |
| UUUAUUAAGACGGCCGCCACUGAUUCAUAGUGAUGUUAUGAUAUAAUUUUAGUGAUAUGCAUUAGCAGGACCGGGUCAAUUAUUA [JR_ExcTryptoB_Sub017] | 158 nM | 146 nM | 166 nM | 142 nM | 173 nM |
| GGUAGCAUGGCGGCCGCCACUACCUAGUGAUGUUAGGCUGUGGACAUAGGAGCAAGACAAAUAUGUAGGACCGGGCCAUGCUACC | 126 nM | 92.8 nM | 111 nM | 124 nM | 131 nM |
| CGCAGUGAUGUUGCGAGCAGCUACAGGGAAGGAGCGCUUUAGUAAGCAGGUAGGUCGCCCACGCAGUGAUGUUGCGUCAUAGGGU [Exclusion Arginine A GF 20] | 158 nM | 123 nM | 117 nM | 100 nM | 111 nM |
| AGUCCACUCUAAAGAGUGGACCUAAGGGAUACCAGUGAUGUUGGUCACCCUUGGCAGCCCACUGUCAUCGAUAAAGAUGGCAGAA | 120 nM | 98.1 nM | 114 nM | 122 nM | 116 nM |
| UGUACUCUGAAAGGAUAUGUGAGCCCUUUUUGUUAGUGAUGUUGACACGGAAACACCAUCAGACUUACAGAAGGUUCGUUGGGUA [theeternabot_sameState_KL_FMN_B_17] | 375 nM | 183 nM | 241 nM | 286 nM | 252 nM |
| UCGCACCUGUGGGCGAGGCCUAUAAUUGUCAAGGAUAUAGAUCAUUCUAGAAGGUGACACUUCGCGAGUGAUGUUCGGGAAAUGC [theeternabot_sameState_KL_FMN_A_8] | 386 nM | 212 nM | 273 nM | 245 nM | 179 nM |
| CGCCGCAAGGCGAGCGCUCCCACUCCGGAAGGAGCGCCCGCAAGGGCAGGUAGGUCGCCGGAGUGAUGUUCCGGUGGAGGGCUCG [#2 Exclusion - Arginine A Attempt #15 (Inspired by Omei)] | 395 nM | 207 nM | 376 nM | 222 nM | 439 nM |
| UGGCGGCAAGGGUUAUUGGAAAGUAUUCGUCGAGGACCGGUACGGCCGCCACUCGAACACCAGUGAUGUUGGUCUGGUUUAAGCU [Exclusion Tryptophan A GF 22] | 447 nM | 690 nM | 540 nM | 636 nM | 321 nM |
| AACUCUCAGAUACUUGAGUGAUGUUCAGGCCGAGGACCGGUACGGCCGCCACUCGGGUCUGAGAGAGGUUAUCAAAGAUAGCCAA [Omei KL Tryp A SS A v10] | 266 nM | 197 nM | 257 nM | 329 nM | 236 nM |
| GGAUAUGUAACAGAUACCAGCCGACGACAGUCACUGUGUCAUGUAGUGAUGUUACAAUCUGGCCCUUGGCAGCUGUCUCUGGUUU [theeternabot_exclusion_KL_Theo_B_27] | 310 nM | 214 nM | 278 nM | 250 nM | 250 nM |
| AACUGUUGGGAAGGAUAUUAUGGUGGCUAAAUCCAGUGAUGUUGGAAAUCGGUACUCGCCCACCUUUAAGAAGGUCCGUGAAAGA [theeternabot_sameState_KL_FMN_B_6] | 152 nM | 164 nM | 151 nM | 199 nM | 130 nM |
| UUAGGAGUGGAAGGAUAUCCUGGUGUGGGUGAUGUUAGUGAUGUUGGAGGUGCAGUGAUGUUGCGCGGAGAAGGUCCGGUGUUGA [BDazzled - #5 - Exc. FMN B] | 280 nM | 299 nM | 372 nM | 435 nM | 263 nM |
| AAACAACGUGACGAUACCAGCUUACUCGGCAAGCCAGUGAUGUUGGUGAAAAGGAGUCAAAGCCCUUGGCAGCGUCGAAGGUUUG [Leteon] | 310 nM | 268 nM | 334 nM | 138 nM | 268 nM |
| AAAUCGUUCAGAAGGAGCGUGGAUUAUUCUUAAAUAUUUAUUACGAGUGAUGUUCGUAAUUCACAGGUAGGUCGCUGAUCGAUAA [JR_ExcArginiB_Sub003] | 102 nM | 137 nM | 106 nM | 121 nM | 105 nM |

| Sequence | apparent KD of K4 kissing-loop reporter (input ligand: FMN 200 uM) | apparent KD of K4 kissing-loop reporter (input ligand: arginine 13.2 mM) | apparent KD of K4 kissing-loop reporter (input ligand: none) | apparent KD of K4 kissing-loop reporter [1] | apparent KD of K4 kissing-loop reporter [2] |
| --- | --- | --- | --- | --- | --- |
| GCGCGCGGCGGAGGAUAUAGCAGGUGAUCCGAGAAAGUGAGUGAUGUUUACGGAGAUGAUGAUAUGUUAGAAGGCCGCCGCGCGC [abcdefghijklmnopqrstuv] | 515 nM | 416 nM | 437 nM | 425 nM | 558 nM |
| UUUUAAAUGUCUGAUACCAGAGAAAAUUUAUGUAGUGAUGUUAUAUACAAAUUAAAUAAGCUCCCUUGGCAGCAGUAUUAAUUUU [AstrosExc-TheB#9] | 583 nM | 596 nM | 846 nM | 623 nM | 552 nM |
| ACCAUCAAAGAUGGCCAGGACUCAACUGAUACCAGAGUGGAGACACUCCCUUGGCAGCAGGUGAGUGAUGUUCACGAGUCCUGGA [Omel KL Theo A SS B v9] | 1000 nM | 801 nM | 1140 nM | 599 nM | 740 nM |
| UAGUCCUAGUGAUCCUUAUCAAGUGGUGGGCGAGGACCGGUACGGCCGCCACUCGAAUAUGCAGUGAUGUUGUAAUCCGGAUAAU [Exclusion - Tryptophan A (Freestyle 10)] | 596 nM | 511 nM | 727 nM | 846 nM | 417 nM |
| GACAUCUAUCGCCGAUAGUGUUUAUCUUGGGAGGAUAUGUCAGCGGACAGAAGGCCCAGUGAUGUUGGGUAGAUGACCGUUGCCU [Orerditi] | 337 nM | 123 nM | 131 nM | 131 nM | 128 nM |
| GGGUGGCAGGCGGCCGCCACUCUGAGCACCCACUGAGUGAUGUUCGUGGCGUAAGACUGUUCGUAGAGGACCGGGUUUGUUGUUC [Same State Tryptophan B GF 23] | 203 nM | 143 nM | 214 nM | 306 nM | 205 nM |
| CACCAUGAAUUCUCUAGGAGUGAUGUUUUUCGAGGACCGGUACGGCCGCCACUCGGACGAGGACCGUGGGAGCGGCGAAGCGACU [wwegmullin] | 234 nM | 148 nM | 109 nM | 1070 nM | 101 nM |
| UCGAACGAUGGAAGGAGCGCUCGUCAGUCCUGCGAGUGAUGUUCGUGGGUAAAUAGUCGCGAGCAGGUAGGUCGCCAUCUUGAGC [Indiermaar] | 130 nM | 120 nM | 131 nM | 128 nM | 125 nM |
| GGACGACAGGCGGCCGCCACUCACAGCAGCCAGCGAGUGAUGUUCGUAGCGGAGUGAUGUUCCGAGAGGACCGGGUCUGCAGUCC [Same State Tryptophan B GF 17] | 246 nM | 178 nM | 224 nM | 168 nM | 223 nM |
| CCGCUGUACUGCAAUAAGUGAUGUUUAUUGCAGGAUAUCUGGAAACAGAGAAGGGCAUGUACUCGACUUAGCCACUACAGCGGUU | 144 nM | 57.3 nM | 61.1 nM | 56.9 nM | 65.2 nM |
| GGAGGCCAGGCCUGCGAAGUGAUGUUUUGACGAGGACCGGUACGGCCGCCACUCGAAUGUUCUAUCAUCGUACGAACUUCUGCGU [theeternabot_exclusion_KL_Trp_A_26] | 593 nM | 415 nM | 496 nM | 527 nM | 394 nM |
| GUUACGCAUGGAAGGAGCGCAGGCUCAACAAGUAGCUCAGUGAUGUUGAGCAUAUUAAUUCUGCAGGUAGGUCGCCAUGUGUAAC [Ex Arginine B K4 26] | 787 nM | 471 nM | 612 nM | 802 nM | 646 nM |
| UGAUACCAGACGGCCGCCACUCCUGCAGUCAAAGACUGCUAAAGGAAAUUCGUCCAGUGAUGUUGGAGGACCGGGUCUGGUAUCU [TrypBX 13 #SwitchBubble #Palindromic #StaticStem] | 1100 nM | 753 nM | 1070 nM | 810 nM | 480 nM |
| UAAUGCAUGACGGCCGCCACUAGUACUGGAGUGAUGUUGUGGUACGGCGGCAGUAUAGGGUGGACUAGGACCGGGUCAUGCAUAU [KL-XTryp-B11 #analogue] | 598 nM | 443 nM | 597 nM | 547 nM | 567 nM |
| UAAGUCUUAUCGGCCGCCACUCAUUACACGAAGUGAUGUUUCGGGUUUUAGACAAAUAAUUUUUGGAGGACCGGGAUACGAGAAA [theeternabot_sameState_KL_Trp_B_49] | 162 nM | 113 nM | 139 nM | 148 nM | 114 nM |
| UUUGUAUAGGGAAGGAGCGUGAAUGAUAAUGAAUAUAGUGAUGUUAUAUAUAAGAAAGAAUCACAGGUAGGUCGCCCGGAUGAGG [SSArgB.K] | 557 nM | 400 nM | 565 nM | 855 nM | 412 nM |

Reference: the supplement of paper PMC9170038
